Results published in patent US8889130B2, “Treatment of osteoarthritis and pain” (Abbvie Inc., priority 2011, dated 2014).

How the values were obtained:
[1] = system: male Swiss Webster mice; experiment: Joint instability model (JIM) of osteoarthritis, cartilage degeneration histology; assay type: in vivo, mouse; conditions: Example 3.3.3 (FIG. 4); 21 day study; anti-IL-1β mAb 3, 6, 12 mg/kg; combination 6 mg/kg each
Experimental: The design of study of the in vivo activity of a mIL-1α/β DVD-Ig molecule in the joint instability model (JIM) of osteoarthritis in mice is shown in Table 19. All groups contained 25 mice (n=25), weighing approximately 30 grams (BW=30 g). The study was terminated after 21 days. Two and a half month old, male Swiss Webster mice (25/group/time point), housed 5/cage, were anesthetized with isoflurane anesthesia. Anterior cruciate ligament (ACL) trauma was administered on the right and left knees on day 0 in an attempt to induce OA lesions. Intraperitoneal (ip) treatments with IL-1 inhibitory antibodies IL-1α (9H10) and IL-1β (10G11), alone and in combination, were initiated the day of ACL trauma and continued every 4th day (q4d) for 20 days. The vehicle for the non-treatment control was PBS. Right and left knees were harvested on day 21, and histopathologic alterations were scored and characterized. Data were analyzed using only joints that had proliferative responses indicative of successful instability induction. The proliferative response/instability was scored 0-3, and only unstable joints (scores of 1, 2, or 3) were used in the final analysis. Medial and lateral femoral and tibial cartilage degeneration was scored for severity of cartilage degeneration on a scale 0-5. Four days after the last antibody dose, blood was drawn from all animals from each group for serum harvest. Body weights were recorded weekly. […]
Following 2-3 days in a decalcifying fixative (Surgipath Decalifier, Surgipath Medical Ind., Inc., Richmond Va.), both knee joints were trimmed of extraneous tissue, embedded in the frontal plane and sectioned. […] Slides were examined by a board-certified veterinary pathologist blinded to study group designation, and were scored according to the method below. […]
Medial and lateral femoral and tibial cartilage degeneration were scored for severity of cartilage degeneration using the following system: Depth/extent of chondrocyte and proteoglycan loss with fibrillation: […]
The design of this study was similar to that described above in Example 3.3.1. […] Body weights were recorded weekly. […]

[2] = system: DMM mice; experiment: DMM model of osteoarthritis, mechanical allodynia (paw withdrawal threshold); assay type: in vivo, mouse; conditions: Example 5 (FIG. 12); 6 mg/kg ip twice per week for four weeks; day 28
Experimental: The DMM model also generates measurable pain in the mice. […] The efficacy of anti-IL-1α/β therapy was studied in the DMM animal model.
The potential of anti-IL-1 therapy to ameliorate pain was tested in the DMM mouse model of OA in terms of mechanical allodynia. Dosing of the combination of IL-1α and IL-1β mAbs was initiated on the day of the surgery and was repeated twice a week for 5 weeks. Animals were treated with PBS vehicle alone, with an IgG isotype control, or with a combination of anti-IL-1α and anti-IL-1β mAbs (at a dose of 6 mg/kg for each mAb). Animals were tested weekly for paw withdrawal threshold. […] This reduction in pain was seen as early as week 1 following treatment (data not shown).
To evaluate the effect of IL-1 therapy in established pain, animals in the IgG control group with established OA and mechanical allodynia were treated on day 35 with the combination of anti-IL-1α and anti-IL-1β monoclonal antibodies and the paw withdrawal threshold was tested 24 hours later (day 36).
The potential of anti-IL-1 therapy to ameliorate pain in the DMM mouse model of OA (see, above) in terms of mechanical allodynia was further evaluated. Dosing of the combination of IL-1α and IL-1β mAbs was initiated on the day of the surgery and was repeated twice a week for 4 weeks. […]

B1: 10G11: mouse anti-mouse IL-1β monoclonal antibody (clone 10G11) from IL-1α/β double KO mice (antibody, V domains shown)
VH: EVQLQQSGPELVKPGTSVKMSCKTSGYTFTSYVMHWVKQKPGQGLEWIGYIIPYNDNTKYNEKFKGKATLTSDKSSSTAYMELSSLTSEDSAVYYCARRNEYYGSSFFDYWGQGTTLTVSS
VL: DIQMTQSPASLSASVGETVTITCRGSGILHNYLVWYQQKQGKSPQLLVYSAKILADGVPSRFSGSGSGTQYSLKINSLQPEDFGSYYCQHFWSTPFTFGSGTKLEIKR
modifications: heavy chain variable domain of 10G11; light chain variable domain of 10G11
notes: mouse anti-mouse IL-1β monoclonal antibody (clone 10G11) from IL-1α/β double KO mice
- preventing cartilage degradation (medial tibial cartilage degeneration scores) [1]: not effective in preventing cartilage degradation at any dose tested
- paw withdrawal threshold (allodynia) [2]: allodynic (painful)
